Test results: paper PMC6143741

Key:
Test in all cases: MYTH quantitative β-Gal activity assay
TbMCUdΔ4 = conditions: n = 3; 8 colonies were used in each independent experiment; read off a plot
[1] = molecular target: TbMCUd without the mitochondrial targeting signal, MYTH bait or prey; conditions: n = 3; 8 colonies for each independent experiment; parent: est. 120; read off a plot
[2] = molecular target: TbMCUc without the mitochondrial targeting signal, MYTH bait or prey; conditions: n = 3; 8 colonies for each independent experiment; parent: est. 140; read off a plot
TbMCUdΔ2 = conditions: n = 3; 8 colonies were used in each independent experiment; read off a plot
TbMCUcΔ2 = conditions: n = 3; 8 colonies were used in each independent experiment; read off a plot
TbMCUcΔ4 = conditions: n = 3; 8 colonies were used in each independent experiment; read off a plot
TbMCUcΔ3 = conditions: n = 3; 8 colonies were used in each independent experiment; read off a plot
TbMCUdΔ3 = conditions: n = 3; 8 colonies were used in each independent experiment; read off a plot

## TbMCUd without the mitochondrial targeting signal, MYTH bait or prey MCUdΔ4: TMH1 and TMH2 each replaced by WALP (…), in bait and prey
TbMCUdΔ4
  response: 15 units

## TbMCU without the mitochondrial targeting signal, MYTH bait or prey Y235A; F236A; T241E; Y248A
[1]
  response: 58 units
[2]
  response: 65 units

## TbMCU without the mitochondrial targeting signal, MYTH bait or prey TMH1 replaced by WALP (…)
[1]
  response: 78 units
[2]
  response: 82 units

## TbMCUd without the mitochondrial targeting signal, MYTH bait or prey MCUdΔ2: TMH1 replaced by WALP (…), in bait and prey
TbMCUdΔ2
  response: 70 units

## TbMCU without the mitochondrial targeting signal, MYTH bait or prey TMH1 and TMH2 each replaced by WALP (…)
[1]
  response: 12 units
[2]
  response: 15 units

## TbMCUc without the mitochondrial targeting signal, MYTH bait or prey MCUcΔ2: TMH1 replaced by WALP (…), in bait and prey
TbMCUcΔ2
  response: 85 units

## TbMCU without the mitochondrial targeting signal, MYTH bait or prey Q213A; V216F; I217F; F222A
[1]
  response: 88 units
[2]
  response: 100 units

## TbMCUc without the mitochondrial targeting signal, MYTH bait or prey MCUcΔ4: TMH1 and TMH2 each replaced by WALP (…), in bait and prey
TbMCUcΔ4
  response: 20 units

## TbMCUc without the mitochondrial targeting signal, MYTH bait or prey MCUcΔ3: TMH2 replaced by WALP (…), in bait and prey
TbMCUcΔ3
  response: 55 units

## TbMCU without the mitochondrial targeting signal, MYTH bait or prey TMH2 replaced by WALP (…)
[1]
  response: 45 units
[2]
  response: 50 units

## TbMCUd without the mitochondrial targeting signal, MYTH bait or prey MCUdΔ3: TMH2 replaced by WALP (…), in bait and prey
TbMCUdΔ3
  response: 52 units
